Reference: patent US20140087995A1 (published 2014)
Numbered stars: 1 amine (or outer) side, 2 acyl side, 3 side chain; on linkers, the order of the positions; unused ones are H or OH. Bridge positions count the residues as written; N and C are the ends. Side chains are listed from the residue outwards. Ends that are not written are not given here. * marks the point of attachment. C20 diacid = O=C(O)CCCCCCCCCCCCCCCCCCC(=O)*; γGlu = O=C(O)[C@H](CCC(=O)[*:2])N[*:1]

T1: human amylin receptor (amylin 3(a) receptor: human calcitonin receptor with RAMP-3) (human, UniProt P30988 25-474; O60896 24-148)
T1 construct: whole, on cells; also called hAmylin-R; hAmylinR
T1 sequence (looked up) 1: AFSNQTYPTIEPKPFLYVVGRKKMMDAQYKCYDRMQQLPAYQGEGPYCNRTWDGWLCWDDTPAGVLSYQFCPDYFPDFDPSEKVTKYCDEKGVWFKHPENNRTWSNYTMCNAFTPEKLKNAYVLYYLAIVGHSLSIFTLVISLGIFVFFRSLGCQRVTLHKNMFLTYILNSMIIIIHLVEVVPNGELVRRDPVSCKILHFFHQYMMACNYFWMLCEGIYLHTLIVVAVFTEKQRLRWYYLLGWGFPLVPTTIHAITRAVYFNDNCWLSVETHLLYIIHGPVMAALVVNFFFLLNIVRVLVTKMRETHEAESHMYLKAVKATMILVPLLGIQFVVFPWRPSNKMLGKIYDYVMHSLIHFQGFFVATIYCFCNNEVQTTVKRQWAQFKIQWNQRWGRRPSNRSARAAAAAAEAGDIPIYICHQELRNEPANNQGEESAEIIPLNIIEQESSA
T1 sequence (looked up) 2: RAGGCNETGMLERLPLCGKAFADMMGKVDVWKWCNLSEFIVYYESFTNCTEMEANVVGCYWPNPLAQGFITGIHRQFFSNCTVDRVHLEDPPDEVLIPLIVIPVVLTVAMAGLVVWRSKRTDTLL


Biological target: T1, human amylin receptor (amylin 3(a) …)
Assay: SPA displacement of 125I-rat amylin, hAmylin 3(a) receptor membranes
Method in brief: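 Membranes from BHK Amylin 3(a)/CRE-luc cells (35 ng/μL final) were mixed with SPA beads and test compounds in 50 mM Hepes pH 7.4 with 1 mM CaCl2, 5 mM MgCl₂, 0.1% OA and 0.02% Tween20. Incubation ran 120 min at 25° C with shaking; IC₅₀ came from one-site competition fitting.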

Row | IC50 | Binder
1 | 1.16 nM | K([γGlu-γGlu-C20 diacid])CNTATCATQRLAEFLRHSSPNFGAIPSSTNVGSRTY-NH2 (disulfide 2-7; N-terminus assumed; SMILES CC[C@H](C)[C@H](NC(=O)[C@H](C)NC(=O)CNC(=O)[C@H](Cc1ccccc1)NC(=O)[C@H](CC(N)=O)NC(=O)[C@@H]1CCCN1C(=O)[C@H](CO)NC(=O)[C@H](CO)NC(=O)[C@H](Cc1c[nH]cn1)NC(=O)[C@H](CCCNC(=N)N)NC(=O)[C@H](CC(C)C)NC(=O)[C@H](Cc1ccccc1)NC(=O)[C@H](CCC(=O)O)NC(=O)[C@H](C)NC(=O)[C@H](CC(C)C)NC(=O)[C@H](CCCNC(=N)N)NC(=O)[C@H](CCC(N)=O)NC(=O)[C@@H](NC(=O)[C@H](C)NC(=O)[C@@H]1CSSC[C@H](NC(=O)[C@@H](N)CCCCNC(=O)CC[C@H](NC(=O)CC[C@H](NC(=O)CCCCCCCCCCCCCCCCCCC(=O)O)C(=O)O)C(=O)O)C(=O)N[C@@H](CC(N)=O)C(=O)N[C@@H]([C@@H](C)O)C(=O)N[C@@H](C)C(=O)N[C@@H]([C@@H](C)O)C(=O)N1)[C@@H](C)O)C(=O)N1CCC[C@H]1C(=O)N[C@@H](CO)C(=O)N[C@@H](CO)C(=O)N[C@H](C(=O)N[C@@H](CC(N)=O)C(=O)N[C@H](C(=O)NCC(=O)N[C@@H](CO)C(=O)N[C@@H](CCCNC(=N)N)C(=O)N[C@H](C(=O)N[C@@H](Cc1ccc(O)cc1)C(N)=O)[C@@H](C)O)C(C)C)[C@@H](C)O, also called 89; compound 89)
2 | 0.633 nM | K([γGlu-γGlu-C20 diacid])CNTATCATQRLAEFLRHSSPNFGAIPSSTNVGHNTY-NH2 (disulfide 2-7; N-terminus assumed; SMILES CC[C@H](C)[C@H](NC(=O)[C@H](C)NC(=O)CNC(=O)[C@H](Cc1ccccc1)NC(=O)[C@H](CC(N)=O)NC(=O)[C@@H]1CCCN1C(=O)[C@H](CO)NC(=O)[C@H](CO)NC(=O)[C@H](Cc1c[nH]cn1)NC(=O)[C@H](CCCNC(=N)N)NC(=O)[C@H](CC(C)C)NC(=O)[C@H](Cc1ccccc1)NC(=O)[C@H](CCC(=O)O)NC(=O)[C@H](C)NC(=O)[C@H](CC(C)C)NC(=O)[C@H](CCCNC(=N)N)NC(=O)[C@H](CCC(N)=O)NC(=O)[C@@H](NC(=O)[C@H](C)NC(=O)[C@@H]1CSSC[C@H](NC(=O)[C@@H](N)CCCCNC(=O)CC[C@H](NC(=O)CC[C@H](NC(=O)CCCCCCCCCCCCCCCCCCC(=O)O)C(=O)O)C(=O)O)C(=O)N[C@@H](CC(N)=O)C(=O)N[C@@H]([C@@H](C)O)C(=O)N[C@@H](C)C(=O)N[C@@H]([C@@H](C)O)C(=O)N1)[C@@H](C)O)C(=O)N1CCC[C@H]1C(=O)N[C@@H](CO)C(=O)N[C@@H](CO)C(=O)N[C@H](C(=O)N[C@@H](CC(N)=O)C(=O)N[C@H](C(=O)NCC(=O)N[C@@H](Cc1c[nH]cn1)C(=O)N[C@@H](CC(N)=O)C(=O)N[C@H](C(=O)N[C@@H](Cc1ccc(O)cc1)C(N)=O)[C@@H](C)O)C(C)C)[C@@H](C)O, also called 87; compound 87)
